Data taken from article PMC6911004, “Fragment-based screening identifies molecules targeting the substrate-binding ankyrin repeat domains of tankyrase” (Scientific Reports, 2019).

Assays:
[1] = target: T1, TNKS2 ARC4 (Homo sapiens, UniProt Q9H2K2); assay: Differential scanning fluorimetry (DSF); assay type: binding; details: ARC 20 μM + 3BP2 TBM peptide 200 μM, inflection point method
T1 construct: The cell was filled with TNKS2 ARC4 (488–649); His6-GST; made in house; host or cells: E. coli
T1 sequence (Q9H2K2 488-649): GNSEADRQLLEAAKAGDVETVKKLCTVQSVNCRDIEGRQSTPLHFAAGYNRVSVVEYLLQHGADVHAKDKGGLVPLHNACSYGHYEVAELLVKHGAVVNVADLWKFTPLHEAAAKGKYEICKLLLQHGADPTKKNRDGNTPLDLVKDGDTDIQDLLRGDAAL
Description: (§1) For the experiment shown in Fig. 2A, ARC and 3BP2 TBM peptide concentrations were 20 and 200 μM, respectively, in 50 mM HEPES-NaOH pH 7.5, 100 mM NaCl, 2 mM TCEP and a total volume of 25 μL. SYPRO Orange was added at 5×. Data were recorded from 4–95 °C, with the temperature ramped by 0.5 °C every 15 s, using a CFX384 thermal cycler (Bio-Rad). Data were analysed by non-linear regression in GraphPad Prism using a Boltzmann sigmoid with linear baselines. ΔTm values were determined using the inflection point method.

[2] = target: T2, TNKS2 ARC1 (Homo sapiens, UniProt Q9H2K2); assay: Differential scanning fluorimetry (DSF); assay type: binding; details: ARC 20 μM + 3BP2 TBM peptide 200 μM, inflection point method
T2 construct: TNKS2 ARC1 (20–178); His6-GST; made in house; host or cells: E. coli
T2 sequence (Q9H2K2 whole entry, looked up): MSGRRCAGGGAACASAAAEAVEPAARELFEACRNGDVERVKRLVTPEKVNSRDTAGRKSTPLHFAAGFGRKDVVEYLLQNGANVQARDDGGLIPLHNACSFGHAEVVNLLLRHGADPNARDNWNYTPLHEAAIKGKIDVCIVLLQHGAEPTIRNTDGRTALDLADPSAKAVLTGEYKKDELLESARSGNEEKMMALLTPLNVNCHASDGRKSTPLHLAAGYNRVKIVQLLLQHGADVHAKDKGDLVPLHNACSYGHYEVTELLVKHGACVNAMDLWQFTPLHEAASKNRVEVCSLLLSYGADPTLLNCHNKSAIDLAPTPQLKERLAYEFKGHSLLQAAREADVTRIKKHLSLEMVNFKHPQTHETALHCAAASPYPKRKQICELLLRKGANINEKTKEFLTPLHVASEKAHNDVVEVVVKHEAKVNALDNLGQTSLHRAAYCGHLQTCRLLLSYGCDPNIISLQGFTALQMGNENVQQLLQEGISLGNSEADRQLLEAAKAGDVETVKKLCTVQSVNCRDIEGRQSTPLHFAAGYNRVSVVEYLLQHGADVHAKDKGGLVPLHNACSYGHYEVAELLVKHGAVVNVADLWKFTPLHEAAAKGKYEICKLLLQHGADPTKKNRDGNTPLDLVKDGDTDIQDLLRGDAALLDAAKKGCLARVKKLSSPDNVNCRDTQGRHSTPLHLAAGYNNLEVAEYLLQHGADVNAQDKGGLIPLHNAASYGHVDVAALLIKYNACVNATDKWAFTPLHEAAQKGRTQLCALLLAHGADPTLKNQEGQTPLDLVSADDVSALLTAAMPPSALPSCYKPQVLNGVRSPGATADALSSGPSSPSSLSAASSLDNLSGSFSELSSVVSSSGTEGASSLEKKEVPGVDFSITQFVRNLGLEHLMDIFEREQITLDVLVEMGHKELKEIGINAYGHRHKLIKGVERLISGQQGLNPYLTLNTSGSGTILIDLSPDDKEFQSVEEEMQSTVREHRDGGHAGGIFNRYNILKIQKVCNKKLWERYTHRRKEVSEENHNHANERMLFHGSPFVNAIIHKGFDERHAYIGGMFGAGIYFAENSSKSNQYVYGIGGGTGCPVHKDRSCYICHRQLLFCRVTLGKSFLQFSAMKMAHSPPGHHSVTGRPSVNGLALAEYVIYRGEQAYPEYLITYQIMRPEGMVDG
Description: as §1

ΔTm [1]: 0.63 °C | ΔTm [2]: 1.34 °C
Sequence: LPHLQRSPPDGQSFRSW [3BP2 16-mer peptide, 16-mer TBM peptide derived from 3BP2, W added for A280, N-terminus acetylated, C-terminus amide-capped; positive control, reference compound]
